Results reported in patent publication US20050025821A1, “Lipid-comprising drug delivery complexes and methods for their production” (priority 2001, published 2005).
Starred links: 1 amine or outer side, 2 acyl side, 3 side chain; linkers in the order of their positions; H or OH if unused. Suc = O=C(CCC(=O)[*:2])[*:1]

Key:
[1] = Surface zeta potential (Malvern zeta sizer); assay type: physicochemical; settings: 10 mol % in LPD, 5% dextrose USP pH 5.0
Method: LPDs were prepared as described by Li, S., et al., Gene Therapy, 1998. 5(7): p. 930-937. Lipid:protamine:DNA ratios of 12 nmol:0.9 μg:1 μg, 12 nmol:0.97 μg:1 μg, and 12 nmol:1 μg:1 μg were used for these experiments, as indicated. As a typical example, 150 μl of liposomes at 6mM were mixed with 197 μl of 5% dextrose USP followed by the addition of 153 μl of pre-compacted DNA at 490 μg/ml. This operation was performed under moderate vortex agitation (speed #3), and the resulting LPD solution contained 150 μg DNA/ml. […] The surface zeta potential was determined using a Malvern zeta sizer (Malvern Instrument Inc, Sacramento, Calif.).
Typically, 0.15 ml of mixed micelles prepared as describe above were mixed with 350 μl of DNA pre-compacted with protamine at a 2:1 protamine:DNA ratio under mild vortex agitation (speed 3). Particles formed spontaneously, i.e. solution became cloudy. […] Particle sizes were assessed as described above and typically were in the 100-200 nm range as determined using a N4Plus coulter (Beckman Coulter, Miami, Fla.) sizer in unimodal mode. The surface zeta-potential was determined using a Malvern zeta sizer (Malvern Instrument Inc, Sacramento, Calif.). […]
PPAA polymer was supplied by Dr. Allan Hoffman's laboratory (University of Washington, Seattle, Wash.). […] The surface zeta potential was determined using a Malvern zeta sizer (Malvern Instrument Inc, Sacramento, Calif). […]

KB cells = assay: In vitro transfection (luciferase expression); assay type: cell-based; settings: 1 μg DNA/well
Method: The following day, the media was removed and replaced with 500 μl of fresh serum-free media.

[2] = Particle sizing (mean diameter, polydispersity; Coulter N4Plus, unimodal mode); assay type: physicochemical; settings: condensed DNA 2:1 μg:μg, DNA 0.143 mg/ml, second experiment (Table 18)
Method: The liposomes were prepared as follows: 6000 nmol of 1,2-dioleoyl-3-trimethylammonium-propane (DOTAP) (Avanti Polar Lipid Inc., Alabaster, Ala.) at 20 mg/ml in chloroform and 6000 nmol of cholesterol (Avanti Polar Lipid Inc., Alabaster, Ala.), also prepared at 20 mg/ml in chloroform (J. T. Baker, Phillipsburg N.J.), were mixed in a borosilicate tube and dried for 1 hr under nitrogen at 4 liters per minute (LPM) using a N-EVAP™ (Organomation, Berlin, Mass.). The resulting lipid films were hydrated in 2 ml of 5% USP dextrose (Abbott Laboratories, North Chicago, Ill.) to achieve a final lipid concentration of 6 mM. […]
LPDs were prepared as described by Li, S., et al., Gene Therapy, 1998. […] The surface zeta potential was determined using a Malvern zeta sizer (Malvern Instrument Inc, Sacramento, Calif.).
DLPDs were generated by a modified version of the method previously described by Harvie, P., F. M. Wong, and M. B. Bally, Biophys J, 1998. […] Particle sizes were assessed as described above and typically were in the 150-300 nm range.
Typically, 0.15 ml of mixed micelles prepared as describe above were mixed with 350 μl of DNA pre-compacted with protamine at a 2:1 protamine:DNA ratio under mild vortex agitation (speed 3). […] The surface zeta-potential was determined using a Malvern zeta sizer (Malvern Instrument Inc, Sacramento, Calif.). […]

Substance	decrease in the zeta-potential versus conventional LPD [1]	increase in transfection activity when formulated with CHEMS:DOPE compared to peptide-compacted DNA alone (KB cells)	size (nm) [2]
DSPE-PEG5K-succinyl-ACDCRGDCFCG-COOH ({DSPE-PEG5K-Suc}-ACDCRGDCFCG-OH; cysteine pairing not given here) [DSPE-PEG5K-RGD, targeting factor-pegylated lipid conjugate]	15 mV	–	–
KHKHKHKHKGKHKHKHKHK	–	No change in the transfection activity	25 nm
